Here are results for 83 variants from the RNAGym collection of RNA variant scans (doi:10.1021/acssynbio.7b00057).

First the molecules themselves.
B1: Pistol ribozyme (parent)
chain: GGGUCGUUGUUCCAUAAUCGCGUGGAUAUGGCACGCAAGUUUCUACCGGGCACCGUAAAUGUCCGACUGGAGCCGUUCGGGCGGCUAUAAACAGACCUCAGGCCCGAAGCGUGGCGGCACCUGCCGCCGGUGGUAAAAAAGAUCGGAAGAGCACACGUCU

Variants of B1 are the subject of the data set. The data set can be described thus: aptazyme ON/OFF ratio, guanine; higher = stronger switching; co-transcriptional cleavage with and without guanine.
In the case of U8G U10C C12G C13A, the “aptazyme ON/OFF ratio” value was 1.13.

In the case of U8G U10A C12U, the “aptazyme ON/OFF ratio” value was 1.17.

On to U8G U10A C12A, for which the “aptazyme ON/OFF ratio” value was 1.48.

Take U8G U10A C12G: the “aptazyme ON/OFF ratio” value turned out to be 1.23.

Regarding G9A U10A U11C C12U C13G, the “aptazyme ON/OFF ratio” value was found to be 1.36.

For G9A U10A U11C C12U C13A, the “aptazyme ON/OFF ratio” value came to 1.34.

G9A U10A U11C C12U C13U: the “aptazyme ON/OFF ratio” value turned out to be 1.26.

For U8G U10C U11A C12U C13U, the “aptazyme ON/OFF ratio” value was found to be 1.22.

In the case of U8G U10C U11A C12U C13G, the “aptazyme ON/OFF ratio” value came to 1.14.

On to U8G U10C U11A C12U C13A, for which the “aptazyme ON/OFF ratio” value was 1.14.

Take U8G U10C C12A C13G: the “aptazyme ON/OFF ratio” value came to 1.07.

For U8G U10C C12A C13U, the “aptazyme ON/OFF ratio” value came out at 1.14.

Turning to U8G U10C C12A C13A, the “aptazyme ON/OFF ratio” value is 1.09.

Turning to U8G U10G U11A C12A C13G, the “aptazyme ON/OFF ratio” value was found to be 1.14.

For U8G U10G U11A C12A C13A, the “aptazyme ON/OFF ratio” value turned out to be 1.18.

Regarding U8G U10G U11A C12A C13U, the “aptazyme ON/OFF ratio” value came to 1.3.

Consider U8G U11C, for which the “aptazyme ON/OFF ratio” value is 2.46.

In the case of U8G U11G, the “aptazyme ON/OFF ratio” value was found to be 1.25.

With U8G U11A, the “aptazyme ON/OFF ratio” value worked out at 3.01.

Turning to U8G U10C U11C C12U, the “aptazyme ON/OFF ratio” value is 1.17.

Consider U8G U10C U11C C12A, for which the “aptazyme ON/OFF ratio” value turned out to be 1.09.

Consider U8G U10C U11C C12G, for which the “aptazyme ON/OFF ratio” value was 1.21.

As to U8G U10A U11A C13U, the “aptazyme ON/OFF ratio” value came to 1.17.

As to U8G U10A U11A C13G, the “aptazyme ON/OFF ratio” value was 1.07.

On to U8G U10A U11A C13A, for which the “aptazyme ON/OFF ratio” value is 1.2.

As to G9A U10A C13G, the “aptazyme ON/OFF ratio” value is 1.14.

On to G9A U10A C13A, for which the “aptazyme ON/OFF ratio” value is 1.41.

With G9A U10A C13U, the “aptazyme ON/OFF ratio” value came out at 1.5.

For the variant G9A U10A U11C C12A, the “aptazyme ON/OFF ratio” value came out at 1.65.

Regarding G9A U10A U11C C12G, the “aptazyme ON/OFF ratio” value amounted to 1.32.

Take G9A U10A U11C C12U: the “aptazyme ON/OFF ratio” value came to 1.13.

For U8G U10A U11G C12G C13U, the “aptazyme ON/OFF ratio” value was 1.5.

As to U8G U10A U11G C12G C13A, the “aptazyme ON/OFF ratio” value turned out to be 1.31.

U8G U10A U11G C12G C13G: the “aptazyme ON/OFF ratio” value was 1.14.

Regarding G9A U10A U11A C13U, the “aptazyme ON/OFF ratio” value was 1.46.

Regarding G9A U10A U11A C13A, the “aptazyme ON/OFF ratio” value was determined as 1.11.

On to G9A U10A U11A C13G, for which the “aptazyme ON/OFF ratio” value is 1.05.

U8G U10A C12U C13G: the “aptazyme ON/OFF ratio” value was determined as 1.32.

U8G U10A C12U C13U: the “aptazyme ON/OFF ratio” value was 1.3.

As to U8G U10A C12U C13A, the “aptazyme ON/OFF ratio” value was 1.32.

In the case of U8G U10C U11A C12G C13A, the “aptazyme ON/OFF ratio” value came to 1.07.

Consider U8G U10C U11A C12G C13U, for which the “aptazyme ON/OFF ratio” value was 1.27.

For the variant U8G U10C U11A C12G C13G, the “aptazyme ON/OFF ratio” value came to 1.09.

Consider U8G U10G, for which the “aptazyme ON/OFF ratio” value was found to be 1.32.

As to U8G U10A, the “aptazyme ON/OFF ratio” value turned out to be 1.15.

Turning to U8G U10C, the “aptazyme ON/OFF ratio” value amounted to 3.87.

In the case of U8G U10C U11G C12G C13A, the “aptazyme ON/OFF ratio” value was 1.17.

With U8G U10C U11G C12G C13G, the “aptazyme ON/OFF ratio” value is 1.18.

For U8G U10C U11G C12G C13U, the “aptazyme ON/OFF ratio” value was 1.2.

Regarding U8G U10A U11C C12U C13G, the “aptazyme ON/OFF ratio” value worked out at 1.28.

As to U8G U10A U11C C12U C13A, the “aptazyme ON/OFF ratio” value was determined as 1.2.

Take U8G U10A U11C C12U C13U: the “aptazyme ON/OFF ratio” value was found to be 1.14.

Consider G9A U10A U11A C12G, for which the “aptazyme ON/OFF ratio” value was determined as 1.83.

G9A U10A U11A C12A: the “aptazyme ON/OFF ratio” value was found to be 1.66.

As for G9A U10A U11A C12U, the “aptazyme ON/OFF ratio” value came to 1.68.

With G9A U10A C12U, the “aptazyme ON/OFF ratio” value came out at 1.86.

In the case of G9A U10A C12A, the “aptazyme ON/OFF ratio” value was found to be 1.74.

For the variant G9A U10A C12G, the “aptazyme ON/OFF ratio” value stood at 1.61.

For the variant U8G U11G C12G C13G, the “aptazyme ON/OFF ratio” value worked out at 1.08.

Take U8G U11G C12G C13U: the “aptazyme ON/OFF ratio” value came out at 1.2.

Take U8G U11G C12G C13A: the “aptazyme ON/OFF ratio” value came to 1.08.

Take U8G U10C U11C C12A C13A: the “aptazyme ON/OFF ratio” value came to 1.1.

As for U8G U10C U11C C12A C13G, the “aptazyme ON/OFF ratio” value was found to be 1.11.

With U8G U10C U11C C12A C13U, the “aptazyme ON/OFF ratio” value was 1.05.

Consider G9A U10A U11A C12G C13G, for which the “aptazyme ON/OFF ratio” value worked out at 1.2.

Consider G9A U10A U11A C12G C13A, for which the “aptazyme ON/OFF ratio” value amounted to 1.26.

Take G9A U10A U11A C12G C13U: the “aptazyme ON/OFF ratio” value worked out at 1.23.

As for U8G U10G U11C, the “aptazyme ON/OFF ratio” value stood at 1.05.

U8G U10G U11A: the “aptazyme ON/OFF ratio” value was 1.26.

In the case of U8G U10G U11G, the “aptazyme ON/OFF ratio” value was determined as 1.45.

With U8G U10C U11C C12U C13U, the “aptazyme ON/OFF ratio” value was 1.09.

On to U8G U10C U11C C12U C13G, for which the “aptazyme ON/OFF ratio” value worked out at 1.27.

As for U8G U10C U11C C12U C13A, the “aptazyme ON/OFF ratio” value was 1.14.

For U8G G9U U11G C13A, the “aptazyme ON/OFF ratio” value came out at 1.06.

As to U8G G9U U11G C13U, the “aptazyme ON/OFF ratio” value came to 1.05.

On to U8G G9U U11G C13G, for which the “aptazyme ON/OFF ratio” value amounted to 1.04.

Take U8G U10C U11A C12U: the “aptazyme ON/OFF ratio” value was found to be 1.28.

For the variant U8G U10C U11A C12G, the “aptazyme ON/OFF ratio” value came out at 1.26.

Turning to U8G U10C U11A C12A, the “aptazyme ON/OFF ratio” value is 1.39.

Consider U8G U11A C12U C13U, for which the “aptazyme ON/OFF ratio” value came out at 1.33.

Regarding U8G U11A C12U C13A, the “aptazyme ON/OFF ratio” value is 1.18.

With U8G U11A C12U C13G, the “aptazyme ON/OFF ratio” value worked out at 1.12.

As for U8G U10A U11G C12U C13U, the “aptazyme ON/OFF ratio” value amounted to 1.12.
